# Data taken from US20210101937A1 (Bicycle, published 2021).
# Molecular target: T1, CD137 (UniProt Q07011 24-255, limits assumed)
# Experiment: cell-based or functional assay
# T1 sequence (Q07011 24-255 limits assumed): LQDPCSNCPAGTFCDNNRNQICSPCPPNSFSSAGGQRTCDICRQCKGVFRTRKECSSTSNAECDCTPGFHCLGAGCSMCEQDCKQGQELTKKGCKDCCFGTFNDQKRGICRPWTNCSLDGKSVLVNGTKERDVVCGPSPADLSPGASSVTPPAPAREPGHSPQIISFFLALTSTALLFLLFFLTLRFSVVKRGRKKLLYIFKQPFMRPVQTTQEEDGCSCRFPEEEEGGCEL
Binder,Fold improvement in EC50 over BCY9173 on same plate [fold],Fold improvement in Emax over BCY9173 on same plate [fold]
BCY12237 (Ac-C[tBuAla]PE[D-Lys]PYCFADPY[Nle]CA; Cys residues bonded to TATA scaffold; [Ac]A[HArg]DC[HyP]LVNPLCK(PYA)HP[dD]W[HArg]C; Cys residues bonded to TATA scaffold) peptide 1: AXDCXLVNPLCKHPDWXC peptide 2: CXPEKPYCFADPYXCA,1,0.8
BCY12236 (Ac-C[tBuAla]PE[D-Lys]PYCFADPY[Nle]CA; Cys residues bonded to TATA scaffold; [Ac]A[HArg]DC[HyP]K(PYA)VNPLCLHP[dD]W[HArg]C; Cys residues bonded to TATA scaffold) peptide 1: AXDCXKVNPLCLHPDWXC peptide 2: CXPEKPYCFADPYXCA,1.4,0.8

# Molecular target: T1, CD137
# Experiment: cell-based or functional assay
# Remark: another data set of the same source
Binder,EC50 [nM],Fold Induction over background [fold over background]
BCY12375 ([Ac]C[tBuAla]EE(dK)PYCFADPY[Nle]C[Dap(PYA)]; carries Palmitic acid-PEG10 (Example 1); Cys residues bonded to TATA scaffold; Ac-SDKCSAGWLTMCQK[PYA]LHLCPSH; Cys residues bonded to TATA scaffold) peptide 1: SDKCSAGWLTMCQKLHLCPSH peptide 2: CXEEKPYCFADPYXCX,22,3
BCY12230 (Ac-C[tBuAla]PE[D-Lys(PYA)]PYCFADPY[Nle]CA; Cys residues bonded to TATA scaffold; [Ac]D[HArg]CSKGWLTMCQK(Ac)LHLCPSH; Cys residues bonded to TATA scaffold) peptide 1: DXCSKGWLTMCQKLHLCPSH peptide 2: CXPEXPYCFADPYXCA,46,10
BCY12242 (Ac-C[tBuAla]PE[D-Lys(PYA)]PYCFADPY[Nle]CA; Cys residues bonded to TATA scaffold; [Ac]D[HArg]CSAGWLTMCQK(Ac)LKLCPSH; Cys residues bonded to TATA scaffold) peptide 1: DXCSAGWLTMCQKLKLCPSH peptide 2: CXPEXPYCFADPYXCA,20,13
BCY12229 (Ac-C[tBuAla]PE[D-Lys(PYA)]PYCFADPY[Nle]CA; Cys residues bonded to TATA scaffold; [Ac]D[HArg]CSAGWLTMCQKLHLCPSH; Cys residues bonded to TATA scaffold) peptide 1: DXCSAGWLTMCQKLHLCPSH peptide 2: CXPEXPYCFADPYXCA,18,8
